For one protein, Km results are on record in ChEMBL document CHEMBL1139252, “Inhibition of purple acid phosphatase with alpha-alkoxynaphthylmethylphosphonic acids” (Bioorg Med Chem Lett, 2009).

Holding throughout (conditions): Phaseolus vulgaris
Substrate in data set [1]: CCCCCCCCCCOC(c1cccc2ccccc12)P(=O)(O)O
Description: (§1) Activity of red kidney bean PAP at pH 6.2.

Substrate in data set [2]: CCCCCCCCOC(c1cccc2ccccc12)P(=O)(O)O
The data set is described as §1.

Substrate in data set [3]: CCCCCCOC(c1cccc2ccccc12)P(=O)(O)O
The data set is described as §1.

Substrate in data set [4]: O=P(O)(O)C(O)c1cccc2ccccc12
Described as §1.

Substrate in data set [5]: O=P(O)(O)Cc1cccc2ccccc12
The description is as §1.

B1: Fe(3+)-Zn(2+) purple acid phosphatase (Phaseolus vulgaris), P80366 (protein)
chain: MGVVKGLLALALVLNVVVVSNGGKSSNFVRKTNKNRDMPLDSDVFRVPPGYNAPQQVHITQGDLVGRAMIISWVTMDEPGSSAVRYWSEKNGRKRIAKGKMSTYRFFNYSSGFIHHTTIRKLKYNTKYYYEVGLRNTTRRFSFITPPQTGLDVPYTFGLIGDLGQSFDSNTTLSHYELSPKKGQTVLFVGDLSYADRYPNHDNVRWDTWGRFTERSVAYQPWIWTAGNHEIEFAPEINETEPFKPFSYRYHVPYEASQSTSPFWYSIKRASAHIIVLSSYSAYGRGTPQYTWLKKELRKVKRSETPWLIVLMHSPLYNSYNHHFMEGEAMRTKFEAWFVKYKVDVVFAGHVHAYERSERVSNIAYKITNGLCTPVKDQSAPVYITIGDAGNYGVIDSNMIQPQPEYSAFREASFGHGMFDIKNRTHAHFSWNRNQDGVAVEADSVWFFNRHWYPVDDST
As to B1, the Michaelis constant (Km) in data set [1] worked out at 3.1 mM; in data set [2], 3.41 mM; in data set [3], 4.28 mM; in data set [4] it was 5.31 mM; in data set [5] it was 5.78 mM.
